# Measured values from IntAct's records for PubMed 31515488.
# B1: Pre-B-cell leukemia transcription factor 4 (Homo sapiens), Q9BYU1 (parent)
# chain: MAAPPRPAPSPPAPRRLDTSDVLQQIMAITDQSLDEAQARKHALNCHRMKPALFSVLCEIKEKTVVSIRGIQDEDPPDAQLLRLDNMLLAEGVCRPEKRGRGGAVARAGTATPGGCPNDNSIEHSDYRAKLSQIRQIYHSELEKYEQACREFTTHVTNLLQEQSRMRPVSPKEIERMVGAIHGKFSAIQMQLKQSTCEAVMTLRSRLLDARRKRRNFSKQATEVLNEYFYSHLNNPYPSEEAKEELARKGGLTISQVSNWFGNKRIRYKKNMGKFQEEATIYTGKTAVDTTEVGVPGNHASCLSTPSSGSSGPFPLPSAGDAFLTLRTLASLQPPPGGGCLQSQAQGSWQGATPQPATASPAGDPGSINSSTSN
# B2: Keratin, type II cytoskeletal 79 (Homo sapiens), Q5XKE5 (parent)
# chain: MRSSVSRQTYSTKGGFSSNSASGGSGSQARTSFSSVTVSRSSGSGGGAHCGPGTGGFGSRSLYNLGGHKSISVSVAGGALLGRALGGFGFGSRAFMGQGAGRQTFGPACPPGGIQEVTVNQSLLTPLHVEIDPEIQRVRTQEREQIKTLNNKFASFIDKVRFLEQQNKVLETKWALLQEQGQNLGVTRNNLEPLFEAYLGSMRSTLDRLQSERGRLDSELRNVQDLVEDFKNKYEDEINKHTAAENEFVVLKKDVDAAYMGRMDLHGKVGTLTQEIDFLQQLYEMELSQVQTHVSNTNVVLSMDNNRNLDLDSIIAEVKAQYELIAQRSRAEAEAWYQTKYEELQVTAGKHGDNLRDTKNEIAELTRTIQRLQGEADAAKKQCQQLQTAIAEAEQRGELALKDAQKKLGDLDVALHQAKEDLTRLLRDYQELMNVKLALDVEIATYRKLLESEESRMSGECPSAVSISVTGNSTTVCGGGAASFGGGISLGGSGGATKGGFSTNVGYSTVKGGPVSAGTSILRKTTTVKTSSQRY
# partner: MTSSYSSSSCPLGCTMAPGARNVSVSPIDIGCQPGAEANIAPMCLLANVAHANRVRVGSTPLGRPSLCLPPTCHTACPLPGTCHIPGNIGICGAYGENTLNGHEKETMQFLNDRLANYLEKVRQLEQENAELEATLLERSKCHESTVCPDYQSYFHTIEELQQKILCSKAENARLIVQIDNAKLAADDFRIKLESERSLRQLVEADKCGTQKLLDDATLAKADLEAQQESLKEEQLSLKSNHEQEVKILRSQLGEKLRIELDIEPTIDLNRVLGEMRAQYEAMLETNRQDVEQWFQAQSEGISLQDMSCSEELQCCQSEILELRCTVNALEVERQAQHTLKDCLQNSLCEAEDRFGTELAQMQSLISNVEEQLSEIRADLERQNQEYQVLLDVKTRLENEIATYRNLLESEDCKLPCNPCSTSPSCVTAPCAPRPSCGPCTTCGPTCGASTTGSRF
# Variants of: B1
# Details: with tfp11_human TFIP11, Q9UBB9
# Sequence of tfp11_human TFIP11, Q9UBB9 (Q9UBB9 whole entry): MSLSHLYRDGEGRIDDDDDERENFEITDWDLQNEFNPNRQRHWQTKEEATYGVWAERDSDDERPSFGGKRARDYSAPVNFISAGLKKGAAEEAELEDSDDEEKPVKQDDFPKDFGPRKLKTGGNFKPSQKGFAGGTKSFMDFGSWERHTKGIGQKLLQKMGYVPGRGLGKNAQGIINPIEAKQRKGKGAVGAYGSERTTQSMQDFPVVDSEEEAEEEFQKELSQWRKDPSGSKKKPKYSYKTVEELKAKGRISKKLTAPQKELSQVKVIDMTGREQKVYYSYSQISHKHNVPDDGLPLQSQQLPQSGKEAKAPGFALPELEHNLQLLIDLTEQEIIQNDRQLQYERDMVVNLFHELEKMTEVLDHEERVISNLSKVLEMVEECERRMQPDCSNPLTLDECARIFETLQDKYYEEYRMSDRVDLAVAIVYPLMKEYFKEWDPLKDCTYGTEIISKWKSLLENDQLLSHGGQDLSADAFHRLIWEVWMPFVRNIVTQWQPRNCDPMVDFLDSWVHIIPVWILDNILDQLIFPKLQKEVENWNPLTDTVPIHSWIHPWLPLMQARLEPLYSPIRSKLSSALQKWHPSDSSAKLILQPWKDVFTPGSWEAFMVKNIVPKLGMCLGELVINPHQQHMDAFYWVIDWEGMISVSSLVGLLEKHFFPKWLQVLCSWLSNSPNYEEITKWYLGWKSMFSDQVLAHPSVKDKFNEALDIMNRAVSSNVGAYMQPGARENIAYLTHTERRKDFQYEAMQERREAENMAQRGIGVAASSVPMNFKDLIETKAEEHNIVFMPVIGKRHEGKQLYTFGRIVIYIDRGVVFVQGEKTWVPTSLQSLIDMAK
row,effect of a mutation on the interaction,Variant
1,with no effect,MAAPPRPAPSPPAPRRLDTSDVLQQIMAITDQSLDEAQARKHALNCHRMKPALFSVLCEIKEKTVVSIRGIQDEDPPDAQLLRLDNMLLAEGVCRPEKRGRGGAVARAGTATPGGCPNDNSIEHSDYRAKLSQIRQIYHSELEKYEQACREFTTHVTNLLQEQSRMRPVSPKEIERMVGAIHGKFSAIQMQLKQSTCEAVMTLRSRLLDARRKRRNFSKQATEVLNEYFYSHLNNPYPSEEAKEELARKGGLTISQVSNWFGNKRIRYKKNMGKFQEEATIYTGKTAVDTTEVGVPGNHASCLSTPSSGSSGPFPLPSAGDAFLTLQTLASLQPPPGGGCLQSQAQGSWQGATPQPATASPAGDPGSINSSTSN [R327Q]

# Variants of: B2
# Details: with krt38_human KRT38, O76015
row,effect of a mutation on the interaction,Variant
1,with no effect,MRSSVSRQTYSTKGGFSSNSASGGSGSQARTSFSSVTVSRSSGSGGGAHCGPGTGGFGSRSLYNLGGHKSISVSVAGGALLGRALGGFGFGSRAFMGQGAGRQTFGPACPPGGIQEVTVNQSLLTPLHVEIDPEIQRVRTQEREQIKTLNNKFASFIDKVRFLEQQNKVLETKWALLQEQGQNLGVTRNNLEPLFEAYLGSMRSTLDRLQSERGRLYSELRNVQDLVEDFKNKYEDEINKHTAAENEFVVLKKDVDAAYMGRMDLHGKVGTLTQEIDFLQQLYEMELSQVQTHVSNTNVVLSMDNNRNLDLDSIIAEVKAQYELIAQRSRAEAEAWYQTKYEELQVTAGKHGDNLRDTKNEIAELTRTIQRLQGEADAAKKQCQQLQTAIAEAEQRGELALKDAQKKLGDLDVALHQAKEDLTRLLRDYQELMNVKLALDVEIATYRKLLESEESRMSGECPSAVSISVTGNSTTVCGGGAASFGGGISLGGSGGATKGGFSTNVGYSTVKGGPVSAGTSILRKTTTVKTSSQRY [D217Y]
2,with no effect,MRSSVSRQTYSTKGGFSSNSASGGSGSQACTSFSSVTVSRSSGSGGGAHCGPGTGGFGSRSLYNLGGHKSISVSVAGGALLGRALGGFGFGSRAFMGQGAGRQTFGPACPPGGIQEVTVNQSLLTPLHVEIDPEIQRVRTQEREQIKTLNNKFASFIDKVRFLEQQNKVLETKWALLQEQGQNLGVTRNNLEPLFEAYLGSMRSTLDRLQSERGRLDSELRNVQDLVEDFKNKYEDEINKHTAAENEFVVLKKDVDAAYMGRMDLHGKVGTLTQEIDFLQQLYEMELSQVQTHVSNTNVVLSMDNNRNLDLDSIIAEVKAQYELIAQRSRAEAEAWYQTKYEELQVTAGKHGDNLRDTKNEIAELTRTIQRLQGEADAAKKQCQQLQTAIAEAEQRGELALKDAQKKLGDLDVALHQAKEDLTRLLRDYQELMNVKLALDVEIATYRKLLESEESRMSGECPSAVSISVTGNSTTVCGGGAASFGGGISLGGSGGATKGGFSTNVGYSTVKGGPVSAGTSILRKTTTVKTSSQRY [R30C]
3,disrupting interaction strength,MRSSVSRQTYSTKGGFSSNSASGGSGSQARTSFSSVTVSRSSGSGGGAHCGPGTGGFGSRSLYNLGGHKSISVSVAGGALLGRALGGFGFGSRAFMGQGAGRQTFGPACPPGGIQEVTVNQSLLTPLHVEIDPEIQRVRTQEREQIKTLNNKFASFIDKVRFLEQQNKVLETKWALLQEQGQNLGVTRNNLEPLFEAYLGSMRSTLDRLQSEWGRLDSELRNVQDLVEDFKNKYEDEINKHTAAENEFVVLKKDVDAAYMGRMDLHGKVGTLTQEIDFLQQLYEMELSQVQTHVSNTNVVLSMDNNRNLDLDSIIAEVKAQYELIAQRSRAEAEAWYQTKYEELQVTAGKHGDNLRDTKNEIAELTRTIQRLQGEADAAKKQCQQLQTAIAEAEQRGELALKDAQKKLGDLDVALHQAKEDLTRLLRDYQELMNVKLALDVEIATYRKLLESEESRMSGECPSAVSISVTGNSTTVCGGGAASFGGGISLGGSGGATKGGFSTNVGYSTVKGGPVSAGTSILRKTTTVKTSSQRY [R213W]
4,with no effect,MRSSVSRQTYSTKGGFSSNSASGGSGSQARTSFSSVTVSRSSGSGGGAHCGPGTGGFGSRSLYNLGGHKSISVSVAGGALLGRALGGFGFGSRAFMGQGAGRQTFGPACPPGGIQEVTVNQSLLTPLHVEIDPEIQRVRTQEREQIKTLNNKFASFIDKVQFLEQQNKVLETKWALLQEQGQNLGVTRNNLEPLFEAYLGSMRSTLDRLQSERGRLDSELRNVQDLVEDFKNKYEDEINKHTAAENEFVVLKKDVDAAYMGRMDLHGKVGTLTQEIDFLQQLYEMELSQVQTHVSNTNVVLSMDNNRNLDLDSIIAEVKAQYELIAQRSRAEAEAWYQTKYEELQVTAGKHGDNLRDTKNEIAELTRTIQRLQGEADAAKKQCQQLQTAIAEAEQRGELALKDAQKKLGDLDVALHQAKEDLTRLLRDYQELMNVKLALDVEIATYRKLLESEESRMSGECPSAVSISVTGNSTTVCGGGAASFGGGISLGGSGGATKGGFSTNVGYSTVKGGPVSAGTSILRKTTTVKTSSQRY [R161Q]
5,with no effect,MRSSVSRQTYSTKGGFSSNSASGGSGSQARTSFSSVTVSRSSGSGGGAHCGPGTGGFGSRSLYNLGGHKSISVSVAGGALLGRALEGFGFGSRAFMGQGAGRQTFGPACPPGGIQEVTVNQSLLTPLHVEIDPEIQRVRTQEREQIKTLNNKFASFIDKVRFLEQQNKVLETKWALLQEQGQNLGVTRNNLEPLFEAYLGSMRSTLDRLQSERGRLDSELRNVQDLVEDFKNKYEDEINKHTAAENEFVVLKKDVDAAYMGRMDLHGKVGTLTQEIDFLQQLYEMELSQVQTHVSNTNVVLSMDNNRNLDLDSIIAEVKAQYELIAQRSRAEAEAWYQTKYEELQVTAGKHGDNLRDTKNEIAELTRTIQRLQGEADAAKKQCQQLQTAIAEAEQRGELALKDAQKKLGDLDVALHQAKEDLTRLLRDYQELMNVKLALDVEIATYRKLLESEESRMSGECPSAVSISVTGNSTTVCGGGAASFGGGISLGGSGGATKGGFSTNVGYSTVKGGPVSAGTSILRKTTTVKTSSQRY [G86E]
